# Data: the nanobody polyreactivity screen of Harvey et al. (2022)
# Assay: yeast display, Sf9 membrane polyspecificity reagent, FACS + sequencing; frameworks hold sequencing errors
# Outline: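 Sorting gates, low and high (top ~1%), were placed on anti-HA fluorescence to track expression and on streptavidin fluorescence to track reagent binding. A clone's polyreactivity label is taken from the gate it came out of. The reagent was 10% biotinylated, detergent-solubilized Sf9 membrane, applied for 1 hour at 4 °C to galactose-induced yeast display cells.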
sequence,measurement,value
QVQLVESGGGLVQAGGSLRLSSAASGFTFVRYTMGWYRQAPGKERELVAVIRRGGSTYYADSVKGRFTISRDNAKNTVYLQMNSLKPEDTAVYYCNALSALAVEDGYWGLGTQVTVSS,polyreactivity (PSR sort gate),low polyreactivity
QVQLVESGGGLVQAGGSLRLSCAASGSTFTNYAMGWYRPAPGKERELVARITSSGSRTYYADSVKGRFTISRDNAKNTVYLQMNSLKPEDTAVYYCNAETYYLRYGRGYRRFDYWGQGTQVTVSS,polyreactivity (PSR sort gate),high polyreactivity
QVQLVESGGGLVQAGGSLRLSCAASGRIFYHNAMGWYRQAPGKEREFVAAINWRGGNTYYADSVKGRFTISRDNAKITVYLQMNSLKPEDTAVYYCNALYKRYTDYDYWGQGTQVTVSS,polyreactivity (PSR sort gate),high polyreactivity
QVQLVESGGGLVQAGGSLRLSCAASGSTFLGNAMGWYRQAPGKERELVATITGSSGSTYYADSVKGRFTISRDNAKNTVYLQMNSLKPEDTAVYYCNTVYNYWDGYDYWGQGSQVTVSS,polyreactivity (PSR sort gate),low polyreactivity
QVQLVESGGGLVQAGGSLRLSCAASGRILSFYAMGWYRQAPGKEREFVATITWSGGSTYADSVKGRFTISRDNANNSVYLQMNSLKPEDTAVYYCNAELSNYKYDYWGQGTHVTVSS,polyreactivity (PSR sort gate),low polyreactivity
QVQLVESGGGLVQAGGSLRLSCAASGSTFWPNAMGWYRQAPGKERELVAGITTSSGSTFYAHSVKGRFTISRDNAKNTVYLQMNSLKPEDTAVYDCNARVRRRRYKYDYWGQGTQVTVSS,polyreactivity (PSR sort gate),high polyreactivity
QVQLVESGGGLVQEGGSLRLSCAASGSTFPGNAMGWYRQAPGKERELVAAIRDRGTSTYYADSVKGRFTISRDNAKNTVYLQMNSLKPEDTAVYYCAAASRVAKGRWRLYDYWGQGTQVTVSS,polyreactivity (PSR sort gate),high polyreactivity
QVQLVESGGGLVQAGGSLRLSCAASGSIFADYAMGWYRQAPGKERELVAAITYTDDRTYYADSVKGRFTISRDNAKNTVYLQMNSLKPEDTAVYYCNRVFTCRYGYRYEYWGQGSQVTVSS,polyreactivity (PSR sort gate),high polyreactivity
QVQLVESGGGLVQAGGSLRLSCAASGSTFYDYAMGWYRQAPGKERELVAAISQSGGSTYYADSVKGRFTISRDNAKNTVYLQMNSLKPEDTAVYYCAADSGYSLYDYWGQCTQVTVSS,polyreactivity (PSR sort gate),low polyreactivity
QVQLVESGGGLVQAGGSLRLSCAASGSIFRYYAMGWYRQAPGKERELVATISWRGGRTNYADSVKGRFTISRDNAKNTVYLQMNSLKPEDTAVYYCAADPVRRPWGVVGGDYWGQGTQVTVSS,polyreactivity (PSR sort gate),high polyreactivity
QVQLVESGVGLVQAGGSLRLSCAASGSTFRRNTMGWYRKAPGKERELVAAINYSGGSTYYADSVKGRFTISRDNAKNTVYLQMNSLKPEDTAVYYCAARYAYDFPYYYWGQGTQVTVSS,polyreactivity (PSR sort gate),high polyreactivity
QVQLVESGGGLVQAGGSLRLSCAASGRILPSNAMGWYRQAPGKERELVAAIRSGDRTYYADSVKGRFTISRDNAKNTVYLQMNSLKPEDTAVYYCAAFYHHYYRYDYWGQGTQVTVSS,polyreactivity (PSR sort gate),low polyreactivity
QVQLVESGGGLVQAGGSLRLSCAASGNTFDGYDMGWYRQAPGKERELVAAITNTGASTYYADSVKGRFTISRDNAKNTVYLQMNSLKPEDTAVYYCTAQDSYPEDRHGMSYWGQGTQVTVSS,polyreactivity (PSR sort gate),low polyreactivity
QVQLVESGGGLVQAGGSLRLSCAASGPTLHAYTMGWYRQAPGKERELVAAITRGGGNTYYADSVKGRFTISRDNAKNTVYLQMNSLKPEDTAVYYCNADVSGYLWYEYDYWGQGTQVTVSS,polyreactivity (PSR sort gate),low polyreactivity
QVQLVESGGGLVQAGGSLRLSCAASGGNFKQYAMGWYRQAPGKERELVAAISRRGGSTYYADSVKGRFTISRDNAKNTVYLQMNSLKPEDTAVYYCAAPGPTQSTQRGGYWGQGTQVTVSS,polyreactivity (PSR sort gate),high polyreactivity
QVQLVESGGGLVQAGCSLRLSCADSGLTFTFYAMGWYRQAPGKVRELVAAISTSGASTYYADSVKGRFTISRDNANNTVYLQMNSLKPEDTAVYYCAAEYSYSSYLWYDYWGQGTQVTVSS,polyreactivity (PSR sort gate),high polyreactivity
QVQLVESGGGLVQAGGSLRLSCAASGSILTDNAMGWYRQAPGKERELVAAITSSGNTNYADSVKGRFTISRDNAKNTVYLQMKSLKPEDTAVYYCAAVSYYKHWTDWLPVGEDYWGQGTQVTVSS,polyreactivity (PSR sort gate),low polyreactivity
QVQLVESGGGLVQAGGSLRLSCAASGIIFRYYTMGWYRQAPGKERELVAAISWGGGSTYYADSVKGRFTISRDYAKNTVYLQMNSLKPEDTAVYYCAAEGLTYYNYREWLYYYWGQGTQVTVSS,polyreactivity (PSR sort gate),high polyreactivity
QVQLVESGGGLVQAGGSLRLSCAASGFTFRRYAMGWYRQAPGKERELVAAISRRGVTTYYADSVKGRFTISRDNAKNTVYLQMISLKPEDTAVYYCAADHNPSIGDDSWGQGTQVTVSS,polyreactivity (PSR sort gate),high polyreactivity
QVQLVDSGGGLVQAGGSLRLTCAASGIIIPVYAMGWYRQAPGKERELVAAISSGGSTYYADSVKGRFTISRDNAKNTVYLQINSLKPEDTAVYYCAARKVRYPYRWYDYWGQGTQVTVSS,polyreactivity (PSR sort gate),high polyreactivity
QVQLVESGGGLVQAGGSLRLSCAASGSIFPYNVMGWYRQAPGKERELVAVITGSTGRTYYADSVKGRFTISRDNAKNTVYLQMNSLKPEDTAVYYCAKRRYWAPYDYWGQGTQVTVSS,polyreactivity (PSR sort gate),high polyreactivity
QVQLVESGGGLVQAGGSLRLSCAASGSILYVYAMGWYRQAPGKEWELVAVITSGGSTNYADSVKGRFTISRDNAKNTVYLQMNSLKPEDTAVYYCAADPYSVYGGDYWGQGTQVTVSS,polyreactivity (PSR sort gate),low polyreactivity
QVQLVESGGGLVQAGGSLRLSCAASGFIFGTNAMGWYRQAPGKERELVAAITSRGGSTYYADSVKGRFTISRDNAKNTVYLQMNSLKPEDTAVYYCAADKPRSYYYWGQGTQVTVSS,polyreactivity (PSR sort gate),high polyreactivity
QDQLVESGGGLVQAGGSLRLSCAASGSIFEINAMGWYRQSPGKERELVAAITGSGGSTHYADSVKGRFTISRDNAKNTVYLQMNSLKPEDTAVYYCAAVPRYQYGYWGQGTQVTVSS,polyreactivity (PSR sort gate),low polyreactivity
QVQLVESGGGLVQAGGSLRLSCAASGRTFRLYAMGWYRQAPGKERELVAAIRSGGSTNYADSVKGRFTISRDNEKNTVYLQMNSLKPEYTAVYYCAVDGYFFQGPYYYWGQGTQVTVSS,polyreactivity (PSR sort gate),low polyreactivity
QVQLVESGGGLVQAGGSLRLSCAASGFIFSYYAMGWYRQAPGKERELVAAITVTGGNTYYADSVKGRFTISRDNAKNTVYLQMNSLKPEDTAVYYCAAVVRGPGVSVYYWGQGTQVSVSS,polyreactivity (PSR sort gate),low polyreactivity
QVQLVESGGGLVQAGGSLRLSCAASGSIFESYVMGWYRQAPGKERELVAAISSGGSTYYADSVKGRFTISRDNAKNTVYLQMNSLKPEDTAVYYCNTEVVRFKYDYWGQGTQVTVSS,polyreactivity (PSR sort gate),low polyreactivity
QVQLVESGGGLVQAGGSLRLSCAASGITFSYYAMGWYRQAPGKERELVAAINSSGGSTYYADSVKGRFTISRDNAKNTVYLQMNSLKPEDTAVYYCAADSFLYPYAEFGYWGQGTQVTVSS,polyreactivity (PSR sort gate),low polyreactivity
QVQLVESGGGLVQAGGSLRLSCAASGRIFYPYVMGWYRQAPGKERELVAAISDSTGSTYYADSVKGRFTISRDNAKNTVYLQMNSLKPEDTAVYYCAAGWFYATYWRFYYWGQGTQVTVSS,polyreactivity (PSR sort gate),low polyreactivity
QVQLVESGGGLVQAGGSLRLSCAASGRTFRLYAMGWYRQAPGKERELDAAIRTDDSTNYADSVKGRFTISRDNAKNTVYLQMNSLKPEDTAVYYCNAEGQFTWLGRRRHKFEYWGQGTQVTVSS,polyreactivity (PSR sort gate),low polyreactivity
QVQLVESGGGLVQAGGRLRLSCAASGLTFAKYSMGWYRQAPGTERELVAAITASGASTYYADSVKGRFTISRDNAKNTVYLQMNSLKPEDTAVYYCAVRRYYNDYWGQGSQVTVSS,polyreactivity (PSR sort gate),low polyreactivity
QVQLVESGGGLVQAGGSLRLSCAASGSTLGHNAMGWYRQAPGKERELVAGISWRGGSTYYADSVKGRFTISRDNAKNTVYLQMNSLKPEDTAVYYCAAVSYPAVYGFDYWGPGTQVTVSS,polyreactivity (PSR sort gate),high polyreactivity
QVQLVESGGGLVQAGGSLRLSCAASGITFHRYDMVWYRQAPGKERELVADITWSGGSTYYADSVKVRFTISRDNAKNTVYLQMNSLKPEDTAVYYCAADASTYTYTPYDYWGQGTQVTVSS,polyreactivity (PSR sort gate),low polyreactivity
QVQLVESGGGLVQAGGSLRLSCAASGSIFFLYAMGWYRQAPGKERELVAGINLSGGSTYYADSVKGRFTISRDNAKNTVYLQMNSLKPEDTAVYYCNAYLPSPYSSSYIFDYDSWGQGTQVTVSS,polyreactivity (PSR sort gate),low polyreactivity
QDQLVESGGGLVQAGGSLRLSCAASGRTFPRNAMGWYRQAPGKERELVAAISSTGDSTYYADSVKGRFTISRDNAKNTVYLQMNSLKPEDTAVYYCHYPYDYWGQGTQVTVSS,polyreactivity (PSR sort gate),low polyreactivity
QVQLVESGGGLVQAGGSLRLSCAASGFTFRLYAMGWYRQAPGIERELVAAISSGGRTYYADSVKGRFTISRDNAKNTVYFQMNSLKPEDTAVNYCAVYPRDAERYGYWGQGSQVTVSS,polyreactivity (PSR sort gate),high polyreactivity
QVQLVESGGGLVQAGGSLRLSCAASGSIFFLNAMGWYRQAPGKERELVAAITNVGSTYYADSVKGRFTISRDNAKNTVYLQMNSLKPEDTAVYYCNADPGEVLVGYDYWGQGTEVTVSS,polyreactivity (PSR sort gate),low polyreactivity
QVQLVESGGGLVQAGGSLRLSCAASGRIFSYYTMGWYRQAPGKERELVAAITSGDSTNYADSVKGRFTISRDNAKNTVYLQMNSLKPEDNAVYYCNARYSWWRSRVGSSHRPDGYWGQGTQVTVSS,polyreactivity (PSR sort gate),high polyreactivity
QVQLVESGGGLVQAGGSLRLSCAASGSIFGTYAMGWDRQARGQERALGAAIRWSSGSTYYADSVNGRFTISRDNATNTESLQMNSLKPADTAVYYCNAEYVYYWLGATFGYWGQGTQVTVSS,polyreactivity (PSR sort gate),high polyreactivity
QVQLVESGGGLVQAGGSLRLSCAASGFIFRRYAMGWSRPAPGNERELVAAITWSGGSTYYADSVKGRFTISRDNAKNTVYLQMNSLKPEDTAVYYCAAVYRQSGDYYSRDYYWGQGTQVTVSS,polyreactivity (PSR sort gate),high polyreactivity
QVQLVESGGGLVQAGGSLRLSCAASGFTFWYYAMGWYRQAPGKEREMVAAISRSGTSTYYADSVKGRFTISRDNAKNTVYLQMNSLKPEDSAVYYCNVLRVKSITYLMDYWGQGTQVTVSS,polyreactivity (PSR sort gate),high polyreactivity
QVQLQESGGGLVQAGGSLRLSCAASCTISQEDWMGWYRQAPGKEREFVAAIGLGSNTNYAESLKGRFTISRDNAKKTVYLQLHSLKPEDTAVYYCAVSVWQYSDHVYGGQGTQVTVSS,polyreactivity (PSR sort gate),low polyreactivity
QVQLVESGGGLVQAGGSLRLSCAASGFIFSRYAMGWYRQAPGKERELVAAITSGGGTYSADSVKGRFTISRDNAKNTVYLQMNSLKPEDTAVYYCAAGYGPTSTSSVRITAGDHWGQGTQVTVSS,polyreactivity (PSR sort gate),low polyreactivity
